In data set [1] the target is recombinant NetB (wild type NetB), Clostridium perfringens (Clostridium perfringens). Nature of the data set: cell-based or functional assay.
For data set [2], the system named is Clostridium perfringens alpha toxin. The format is biochemical.

“And” between values parts separate entries of the source, which are not always exact repeats. Equal values may be shown once. “Also recorded” adds a separate entry of the source.

Four molecules from patent publication US20240390433A1, “GENETICALLY MODIFIED BACILLUS SUBTILIS STRAIN AND USE AS A LIVE DELIVERY AND […]” (BiomEdit, LLC, priority 2021, published 2024) can be followed below.

B1: VHH antibody ENB-1A4 (VHH)
VHH: EVQLVESGGGLVQAGGSLRLSCAASGSIFSTNVMGWYRQAPGKQREFVAGITIGGTARYPDSVKGRFTISRDNTQNTVYLQMNNLKPEDTAVYYCNAVLPSDQRRWSWGQGTQVTVSS
For B1, in data set [1], the lowest VHH concentration neutralizing NetB haemolysis was 1.25 µM and 0.625 µM.

B2: EAT-1F2 (protein, listed as Camelus sp.)
VHH: EVQLVESGGGLVQAGGSLRLSCAGSGRTGSLYSMGWFRQAPGKEREFVAAITWRPSSTYYADSVKGRFTISRDDAKNTVYLQMNSLKPEDTAVYFCAARPRGGLSPTPQAYDYWGQGTQVTVSSAAASGSLEQKLISEEDLNGAAHHHHHHGAA
modifications: REGION 1..154: note = Description of sequence: EAT-1F2 antibody
In the case of B2, in data set [2], the “neutralization of alpha toxin lecithinase activity (in words)” value was “high neutralizing capacity; also recorded: unable to completely neutralize” and the residual lecithinase activity result is reported as “about 25%”.

B3: VHH antibody ENB-1D11 (VHH)
VHH: EVQLVESGGGLVQTGGSLRLSCTASGTIDMTYGLIWYRQAPGKERELVASIRRDGRTNYADSVKGRFTISIDNAKNSIHLQMNSLKPDDTARYYCNSPYHALWGQGTQVTVSS
With B3, the lowest VHH concentration neutralizing NetB haemolysis in data set [1] is 1.25 µM and 0.625 µM.

B4: EAT-1G4 (protein, listed as Camelus sp.)
VHH: EVQLVESGGGLVQPGGSLRLSCAASGSIATINDMGWFRQAPGKQRDWVATIVSDGSTAYADSVKGRFTISRDNAKNTVYLQMNSLKPEDTAVYYCSARRHYGQGTQVTVSSAAASGSLEQKLISEEDLNGAAHHHHHHGAA
modifications: REGION 1..141: note = Description of sequence: EAT-1G4 antibody
Take B4: in data set [2], the lecithinase activity neutralized was found to be 100% and the “neutralization of alpha toxin lecithinase activity (in words)” value was “less capable of neutralizing”.
